Test results reported in patent publication US20090297524A1 (DOMANTIS, published 2009).
Substitutions are numbered along the chain they refer to.

T1: Recombinant human CD40L (human, UniProt P29965 108-261, limits assumed)
T1 construct: also called CD40 ligand
T1 sequence (looked up): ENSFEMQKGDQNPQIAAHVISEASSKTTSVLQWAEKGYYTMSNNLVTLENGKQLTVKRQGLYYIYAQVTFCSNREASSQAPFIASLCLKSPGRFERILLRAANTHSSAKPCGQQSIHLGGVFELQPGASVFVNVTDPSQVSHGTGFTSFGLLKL

B1: DOM.176 (other)
VH: EVQLLESGGGLVQPGGSLRLSCAASGFTFDAYEMGWVRQAPGKGLEWVSIIDWDGNSTYYADSVKGRFTISRDNSKNTLYLQMNSLRAEDTAVYYCAKPGDNVGIFDYWGQGTLVTVSS
notes: VH dAb
B2: DOM.177 (other)
VH: EVQLLESGGGLVQPGGSLRLSCAASGFTFSNYYMVWVRQAPGKGLEWVSAIDEWGFATYYADSVKGRFTISRDNSKNTLYLQMNSLRAEDTAVYYCAKHWEFTSDTSRFDYWGQGTLVTVSS
notes: VH dAb
B3: DOM.181 (other)
VH: EVQLLESGGGLVQPGGSLRLSCAASGFTFAFYPMMWVRQAPGKGLEWVSWIDATGTRTYYADSVKGRFTISRDNSKNTLYLQMNSLRAEDTAVYYCAEGNYGSSYTMGVFDYWGQGTLVTVSS
notes: VH dAb
B4: DOM.182 (other)
VH: EVQLLESGGGLVQPGGSLRLSCAASGFTFDEYPMYWVRQAPGKGLEWVSSIGPSGPNTYYADSVKGRFTISRDNSKNTLYLQMNSLRAEDTAVYYCAKSPYFDVIPSYFDYWGQGTLVTVSS
notes: VH dAb
B5: DOM.183 (other)
VH: EVQLLESGGGLVQPGGSLRLSCAASGFTFADYGMGWVRQAPGKGLEWVSSIQSSGLRTYYADSVKGRFTISRDNSKNTLYLQMNSLRAEDTAVYYCAKRANSRRGFDYWGQGTLVTVSS
notes: VH dAb
B6: DOM.185 (other)
VH: EVQLLESGGGLVQPGGSLRLSCAASGFTFAHYPMSWVRQAPGKGLEWVSSIGRLGNRTYYADSVKGRFTISRDNSKNTLYLQMNSLRAEDTAVYYCAKRATPVPIKGLFDYWGQGTLVTVSS
notes: VH dAb
B7: DOM.188 (other)
VH: EVQLLESGGGLVQPGGSLRLSCAASGFTFTRYRMSWVRQAPGKGLEWVSGISRDGYRTYYADSVKGRFTISRDNSKNTLYLQMNSLRAEDTAVYYCAKGMTASFDYWGQGTLVTVSS
notes: VH dAb
B8: DOM.187 (other)
VH: EVQLLESGGGLVQPGGSLRLSCAASGFTFSSYSMVWVRQAPGKGLEWVSGINRGGTRTYYADSVKGRFTISRDNSKNTLYLQMNSLRAEDTAVYYCAKGWRRGFDYWGQGTLVTVSS
notes: VH dAb
B9: DOM.192 (other)
VH: B7 VH with T30S, R33P, G50S, S52N, D54S, Y56M, K98E, M100H, T101Q, S103P
notes: VH dAb
B10: DOM.189 (other)
VH: EVQLLESGGGLVQPGGSLRLSCAASGFTFQMYPMGWVRQAPGKGLEWVSMIEPAGDLTYYADSVKGRFTISRDNSKNTLYLQMNSLRAEDTAVYYCAKYQEQPWFDYWGQGTLVTVSS
notes: VH dAb
B11: DOM.191 (other)
VH: EVQLLESGGGLVQPGGSLRLSCAASGFTFKLYPMTWVRQAPGKGLEWVSSIDAGGHETYYADSVKGRFTISRDNSKNTLYLQMNSLRAEDTAVYYCAKDWWDYLFDYWGQGTLVTVSS
notes: VH dAb
B12: DOM.194 (other)
VH: EVQLLESGGGLVQPGGSLRLSCAASGFTFKQYDMRWVRQAPGKGLEWVSTISQNGTKTYYADSVKGRFTISRDNSKNTLYLQMNSLRAEDTAVYYCAKSRTGRYFDYWGQGTLVTVSS
notes: VH dAb
B13: DOM.195 (other)
VH: EVQLLESGGGLVQPGGSLRLSCAASGFTFGTYDMGWVRQAPGKGLEWVSRINWQGDRTYYADSVKGRFTISRDNSKNTLYLQMNSLRAEDTAVYYCAKAGFGHYVDGLGFDYWGQGTLVTVSS
notes: VH dAb
B14: DOM.197 (other)
VH: EVQLLESGGGLVQPGGSLRLSCAASGFTFAKYKMWWVRQAPGKGLEWVSSITPKGHSTYYADSVKGRFTISRDNSKNTLYLQMNSLRAEDTAVYYCAKRPMTPFDYWGQGTLVTVSS
notes: VH dAb
B15: DOM.198 (other)
VH: EVQLLESGGGLVQPGGSLRLSCAASGFTFERYNMSWVRQAPGKGLEWVSSIRPRGGKTYYADSVKGRFTISRDNSKNTLYLQMNSLRAEDTAVYYCAKWRREGYTGSKFDYWGQGTLVTVSS
notes: VH dAb
B16: DOM.199 (other)
VH: EVQLLESGGGLVQPGGSLRLSCAASGFTFERYGMTWVRQAPGKGLEWVSSIWPRGQKTYYADSVKGRFTISRDNSKNTLYLQMNSLRAEDTAVYYCAKGNSRYVFDYWGQGTLVTVSS
notes: VH dAb
B17: DOM.200 (other)
VH: EVQLLESGGGLVQPGGSLRLSCAASGFTFTNYSMGWVRQAPGKGLEWVSTIRPNGTKTYYADSVKGRFTISRDNSKNTLYLQMNSLRAEDTAVYYCAKRSSAHLQRFDYWGQGTLVTVSS
notes: VH dAb
B18: DOM.201 (other)
VH: EVQLLESGGGLVQPGGSLRLSCAASGFTFGNYSMGWVRQAPGKGLEWVSSIGRHGGRTYYADSVKGRFTISRDNSKNTLYLQMNSLRAEDTAVYYCAKKGSTYPRFDYWGQGTLVTVSS
notes: VH dAb
B19: DOM.202 (other)
VH: EVQLLESGGGLVQPGGSLRLSCTASGFTFSHYEMGWVRQAPGKGLEWVSSIEPFGGGTYYADSVKGRFTISRDNSKNTLYLQMNSLRAEDTAVYYCAKVYPQGSFDYWGQGTLVTVSS
notes: VH dAb
B20: DOM.203 (other)
VH: EVQLLESGGGLVQPGGSLRLSCAASGFTFSNYTMGWVRQAPGKGLEWVSSIRPDGKITYYADSVKGRFTISRDNSKNTLYLQMNSLRAEDTAVYYCAEVYSSCAMCTPLLFDYWGQGTLVTVSS
notes: VH dAb
B21: DOM.204 (other)
VH: EVQLLESGGGLVQPGGSLRLSCAASGFTFKRYSMAWVRQAPGKGLEWVSDIGPRGFSTYYADSVKGRFTISRDNSKNTLYLQMNSLRAEDTAVYYCAKVGRGQRDTSQPFDYWGQGTLVTVSS
notes: VH dAb
B22: DOM.207 (other)
VH: EVQLLESGGGLVQPGGSLRLSCAASGFTFDKYLMSWVRQAPGKGLEWVSGIEPLGDVTYYADSVKGRFTISRDNSKNTLYLQMNSLRAEDTAVYYCAKEASGDFDYWGQGTLVTVSS
notes: VH dAb
B23: DOM.209 (other)
VH: EVQLLESGGGLVQPGGSLRLSCAASGFTFADYEMWWVRQAPGKGLEWVSAISRQGFATYYADSVKGRFTISRDNSKNTLYLQMNSLRAEDTAVYYCAKDLERDDFDYWGQGTLVTVSS
notes: VH dAb
B24: DOM-12 (other)
VH: EVQLLESGGGLVQPGGSLRLSCAASGFTFRLYEMAWVRQAPGKGLEWVSGIDILGSRTYYADSVKGRFTISRDNSKNTLYLQMNSLRAEDTAVYYCAKDLSWQGFDYWGQGTLVTVSS
notes: VH dAb
B25: DOM-13 (other)
VH: EVQLLESGGGLVQPGGSLRLSCAASGFTFSYYSMYWVRQAPGKGLEWVSSISPFGWGTYYADSVKGRFTISRDNSKDTLYLQMNSLRAEDTAVYYCAKYGETSGPISENFDYWGQGTLVTVSS
notes: VH dAb
B26: DOM-16 (other)
VH: EVQLLESGGGLVQPGGSLRLSCAASGFTFMEYAMIWVRQAPGKGLEWVSIISPLGLSTYYADSVKGRFTISRDNSKNTLYLQMNSLRAEDTAVYYCAKYQDSSDSQYTNFDYWGQGTLVTVSS
notes: VH dAb
B27: DOM-17 (other)
VH: EVQLLESGGGLVQPGGSLRLSCAASGFTFEDYGMGWARQAPGKGLEWVSSIGPLGLWTYYADSAKGRFTISRDNSKNTLYLQMNSLRAEDTAVYYCAKSPLEGLITNFDYWGQGTLVTVSS
notes: VH dAb
B28: DOM-18 (other)
VH: EVQLLESGGGLVQPGGSLRLSCAASGFTFPEYDMTWVRQAPGKGLEWVSYISSDGYSTYYADSVKGRFTISRDNSKNTLYLQMNSLRAEDTAVYYCAKPHGSPREFDYWGQGTLVTVSS
notes: VH dAb
B29: DOM-21 (other)
VH: EVQLLESGGGLVQPGGSLRLSCAASGFTFANYEMGWARQAPGKGLEWVSVISEWGYSTYYADSAKGRFTISRDNSKNTLYLQMNSLRAEDTAVYYCAKLVGGTQYEFDYWGQGTLVTVSS
notes: VH dAb
B30: DOM-32 (other)
VH: EVQLLESGGGLVQPGGSLRLSCAASGFTFEVYQMGWVRQAPGKGLEWVSFIVPGGDLTYYADSVKGRFTISRDNSKNTLYLQMNSLRAEDTAVYYCAETWPEFDYWGQGTLVTVSS
notes: VH dAb
B31: DOM-33 (other)
VL: DIQMTQSPSSLSASVGDRVTITCRASQTIGESLHWYQQKPGKAPRLLIYFASLLQSGVPSRFSGSGSGTDFTLTISSLQPEDFATYYCQQHHMLPSTFGQGTKVEIKR
notes: Vk dAb
B32: DOM-34 (other)
VL: DIQMTQSPSSLSASVGDRVTITCRASQWIGDSLSWYQQKPGKAPKLLIYFASYLQSGVPTRFSGSGSGTDFTLTISSLQPEDFATYYCQQYFENPVTFGQGTKVGIKR
notes: Vk dAb
B33: DOM-39 (other)
VL: DIQMTQSPSSLSASVGDCVTITCRASQNIDGLLWWYQQKPGKAPKLLIYAGSGLQSGVPSRFSGSGSGTDFTLTISSLQPEDFATYYCQQKAFEPFTFGQGTKVEIKR
notes: Vk dAb

molecular target: T1, Recombinant human CD40L; assay: CD40L/CD40-Fc receptor binding assay;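 also: plate assay with coated human CD40-Fc, bound ligand detected via HRP anti-biotin antibody and TMB, OD at 450 nm, lower signal indicates stronger inhibition by dAb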
Experimental: A 96 well Nunc Maxisorp assay plate was coated overnight at 4° C. with 100 μl per well of recombinant human CD40/Fc (R&D Systems) at 0.5 μg/ml in carbonate buffer. The plate was washed 3 times with 300 μl of 0.05% Tween/PBS and 3 times with 300 μl of PBS using a Tecan plate washer. The wells were blocked using 200 μl of PBS containing 2% (w/v) BSA and incubated for a minimum of 1 h at room temperature. The wells were washed as above, then 50 μl of purified dAb protein (or unpurified supernatant containing dAb from a micro-culture expression) was added to each well.
The plate was washed as described above, then 100 μl HRP conjugated anti-biotin antibody (1:5000 dilution in diluent) added to each well and the plate incubated for 1 hr at room temperature. The plate was washed again as described above using a Tecan plate washer and the assay developed using 100 μl of SureBlue 1-Component TMB MicroWell Peroxidase solution (the plate was left at room temperature for up to 20 min). The reaction was stopped by the addition of 100 μl M hydrochloric acid. The OD₄₅₀ₙₘ of the plate was assayed within 30 minutes of acid addition. The OD₄₅₀ₙₘ is proportional to the amount of bound streptavidin-HRP conjugate, therefore the greater the degree of dAb inhibition the lower the OD₄₅₀ₙₘ of the resulting signal.

Binding result, binds:
B1, B2, B3, B4, B5, B6, B7, B8, B9, B10, B11, B12, B13, B14, B15, B16, B17, B18, B19, B20, B21, B22, B23, B24, B25, B26, B27, B28, B29, B30, B31, B32, B33
